Consider 3 substances from publication PMC3349575.

The test deals with XD-CGFP fusion protein (X domain of the measles virus phosphoprotein fused to the C-terminal half of eGFP) (UniProt P03422). The experiment in a line: split-GFP reassembly assay (fluorescence to OD600 ratio of E. coli co-expressing NGFP-N_TAIL and XD-CGFP). The following applies: parent: est. 1.1; read off a plot.
Sequence of UniProt P03422 (P03422 459-507): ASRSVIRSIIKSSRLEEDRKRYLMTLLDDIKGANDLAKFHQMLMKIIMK
For the substance “NGFP-wtN_TAIL fusion protein (C-terminal domain of the measles virus nucleoprotein fused to the N-terminal half of eGFP) mutant 1 (substitutions not printed)”, the response (x10^4 fluorescence intensity / OD600) stood at 1.1. Turning to “NGFP-wtN_TAIL fusion protein (C-terminal domain of the measles virus nucleoprotein fused to the N-terminal half of eGFP) mutant 2 (substitutions not printed)”, the response (x10^4 fluorescence intensity / OD600) is 0.9.

Regarding “NGFP-wtN_TAIL fusion protein (C-terminal domain of the measles virus nucleoprotein fused to the N-terminal half of eGFP) mutant 3 (substitutions not printed)”, the response (x10^4 fluorescence intensity / OD600) stood at 0.54.
